Data as given in patent US20150291521, “PYRROL-1-YL BENZOIC ACID DERIVATIVES USEFUL AS MYC INHIBITORS” (DANA-FARBER CANCER INSTITUTE, INC., published 2015).

Tests used:
[1] = molecular target: Max/Max homodimer (Homo sapiens, UniProt P61244 P61244:1-160); experiment: EMSA; Max/Max/Ebox complex; disrupted by compound 101, not 79; details: tags: His6-Max; chain copies: 2 (stated); label: 5' biotin-triethyleneglycol; self-complementary
[2] = molecular target: c-Myc/Max heterodimer (Homo sapiens, UniProt P01106-1;P61244 P01106-1:1-439,P61244:1-160); experiment: EMSA; complex formed with purified proteins; inhibited dose-dependently by compound 63; details: tags: c-Myc full-length, His6 removed by thrombin (assay 1) or His6-c-Myc (reciprocal assay), label: 5' biotin-triethyleneglycol, self-complementary
Chain of c-Myc/Max heterodimer (P01106 16-454, chain 1 of 2): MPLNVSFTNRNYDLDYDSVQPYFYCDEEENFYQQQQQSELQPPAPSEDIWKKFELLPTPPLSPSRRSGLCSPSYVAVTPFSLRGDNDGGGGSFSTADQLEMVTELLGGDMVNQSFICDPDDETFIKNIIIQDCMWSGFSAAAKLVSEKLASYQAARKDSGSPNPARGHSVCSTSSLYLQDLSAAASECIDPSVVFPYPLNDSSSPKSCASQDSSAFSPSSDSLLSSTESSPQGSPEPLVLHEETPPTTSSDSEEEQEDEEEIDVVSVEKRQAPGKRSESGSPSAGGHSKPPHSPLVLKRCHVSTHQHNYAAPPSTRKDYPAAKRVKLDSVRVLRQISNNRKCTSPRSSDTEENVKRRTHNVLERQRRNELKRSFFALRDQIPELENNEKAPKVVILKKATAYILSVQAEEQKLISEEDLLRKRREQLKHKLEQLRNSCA
Chain of c-Myc/Max heterodimer (P61244 whole entry, chain 2 of 2): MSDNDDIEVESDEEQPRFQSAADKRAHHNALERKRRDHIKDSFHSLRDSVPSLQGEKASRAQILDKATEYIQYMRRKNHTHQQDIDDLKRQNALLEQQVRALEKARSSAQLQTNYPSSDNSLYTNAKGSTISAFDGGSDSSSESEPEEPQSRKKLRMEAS

Chain of Max/Max homodimer (P61244 whole entry, one chain of several): as the sequence (P61244 whole entry, chain 2 of 2) above

B1: Ebox DNA (dsDNA)
DNA 1: GGAAGCAGACCACGTGGTCTGCTTCC
DNA 2: GGAAGCAGACCACGTGGTCTGCTTCC
[1]
  binding result: binds
[2]
  binding result: binds
